Laboratory results published in the supplement of paper PMC10567573.
± gives the standard deviation.

Experiment: protein stability index of a GFP-peptide fusion (GPS, HEK-293T) (PSI 1-6); higher = more stable
Details: c terminus: a fixed tail appended
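Also: 24-mer peptide tiles fused after GFP, lentivirally expressed, FACS-sorted into six equal bins by GFP/DsRed ratio, decoded by Illumina sequencing, PSI is the read-weighted mean bin number.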

Sequence	protein stability index (treatment: DMSO)	protein stability index (treatment: MLN4924 1 uM, 8 h)
DKQKLKRTEIISRSWFPSAPGSAS [YJU2B]	3.56 ± 0.21	3.71 ± 0.12
SHQELHRELLMNHRRGLGVDSKPE [FAM107A]	4.61 ± 0.22	4.57 ± 0.2
LDEPNAESDYTYSSSYEQFNGELP [SRPK2]	4.78 ± 0.28	4.62 ± 0.19
KAVFGKHGPISEVLLIKDRTSKSR [RBMY1A1]	3.04 ± 0.28	3.34 ± 0.22
KDVAIDMMDSRTSQQLQLIDEQDS [STX5]	5.4 ± 0.21	5.33 ± 0.4
PLVLSYIDLSAWCYYCQAYVHHQA [HDAC6]	2.97 ± 0.81	3.27 ± 0.49
TRNGEVVTESQKEQRSELDKSSAH [PRPH]	5.06 ± 0.27	5.31 ± 0.4
QVEIFSTNPDLYPVRRIDGLTDVS [IQUB]	3.71 ± 0.29	3.68 ± 0.27
PENTNRQLLLQFERLVVLDYIIRN [PI4K2A]	2.77 ± 0.34	2.56 ± 0.68
LQELKKLKNSNYESIQQTARSIAE [PPTC7]	3.9 ± 0.51	3.76 ± 0.46
LYGTKGNYTSRVWEYSSSIQNSDN [TRIM29]	3.04 ± 0.2	2.83 ± 0.26
LIQFLEQVHQGIKGMVLDENYNNL [CPN1]	2.62 ± 0.065	3.07 ± 0.61
PMDLSTVKRKMDGREYPDAQGFAA [BRD3]	4.21 ± 0.2	4.38 ± 0.43
LYFHHYFPAMLFSSMLTGILWDTL [POMT2]	2.84 ± 0.34	3.21 ± 0.23
TSVLDALSTDMVHAASDPSSSSGR [SMOC2]	4.99 ± 0.19	4.96 ± 0.18
QRELHSHVTNAMVLVNVLQAIYVI [DHCR7]	2.61 ± 0.59	2.78 ± 0.61
SQYIAVEAAEGRNKNEVFYQCPDQ [FBXO3]	4.46 ± 0.061	4.74 ± 0.094
IVILENIAVAWIYGTKKFMQELTE [SLC6A17]	3.05 ± 1	2.92 ± 0.2
LQANDVFHKQQWFNCIRAAIAPFQ [NET1]	2.14 ± 0.26	2.24 ± 0.28
QLEVTCTPYLKETLNSIWNVEDHI [POMT2]	2.51 ± 0.32	2.44 ± 0.34
HQRFLREGRFWKSKNEDRGEEEAE [ZMYND11]	4.94 ± 0.21	5.27 ± 0.2
HARTHPQTALLESSCENKRADLVF [MATN2]	4.09 ± 0.46	4.02 ± 0.19

Sequence	protein stability index (treatment: DMSO)	protein stability index (treatment: MLN4924 1 uM, 8 h)
PSVPDNAELVLLTLGQAWQGYVSD [DFFB]	2.64 ± 0.52	2.84 ± 0.32
TVEEAKAEKETELSLQKEQLQLKI [TRIM29]	5.1 ± 0.27	5.33 ± 0.3
LGKILSVELGKQKKKYMPYNHQHK [FADS1]	2.55 ± 0.12	2.69 ± 0.23
KLGWGHFSTVWLCWDMQGKRFVAM [SRPK2]	2.9 ± 0.87	2.64 ± 1.2
LDVEAAHSEILKYFQSVTSNRWLM [STX5]	2.06 ± 0.29	1.95 ± 0.055
QPCFFQDISMEIPQEFQKTVSTMY [SCAMP3]	2.55 ± 0.4	2.64 ± 0.23
TAEPFPRLHNLYSTPRCAQQAALP [CBY2]	2.67 ± 0.2	2.66 ± 0.24
EHTGEVRTARALLDRDALKQSLVV [PCDHGA10]	3.23 ± 0.2	3.3 ± 0.26
LTSRIKGDWIGLYRHFLKSPNFDG [DENND6A]	2.01 ± 0.31	2.37 ± 0.35
LHAAAAGGNVECIKLLQSSGADFH [ANKRD44]	3.37 ± 0.091	3.46 ± 0.22
FKPACMSEIKNLERYMCSRFFIDF [TENT5D]	2.55 ± 0.61	2.42 ± 0.58
NSDQTTCRIQDLCAMEDHNCEQLC [MATN2]	4.04 ± 0.29	4.05 ± 0.23
PQLRICLRVSPAEQPRLEFLMRKC [FBXO33]	2.15 ± 0.48	2.11 ± 0.22
DERAMELLIDFAYTSQITVEEGNV [KLHL20]	2.54 ± 0.21	3.04 ± 0.2
LPFRDASFGNCTYNLTILDCLQGI [CDC14A]	2.44 ± 0.59	2.71 ± 0.49
AIGVSISLSSIATCVYIAEIAPQH [SLC2A12]	3.17 ± 0.13	3.34 ± 0.38
TATREEASTSLPTKPTQGASSASE [CLPTM1]	5.47 ± 0.34	5.4 ± 0.46
MAMPNGFHEDGPQGPGGDEDDDEE [PSD2]	5.41 ± 0.3	5.47 ± 0.18
SKLVESGIQFMDEPEMAVFLQNAK [TRIM55]	3.71 ± 0.34	4.01 ± 0.21
LDAVQVLSGVSQLLPKSRENYLNR [FCHO1]	3.13 ± 0.22	3.25 ± 0.18
VQKEHEEYMKNLLKVGGILVMPLE [PCMTD2]	2.69 ± 0.21	2.7 ± 0.17
NSSVWNSHLQTNYSKTFQRSNVDF [NECAB1]	2.65 ± 0.18	2.77 ± 0.32
